Earlier results on one substance are cited in article PMC9558565.

The target in the data set is p53p (Homo sapiens) (UniProt P04637).
Chain of p53p (Homo sapiens) (P04637 whole entry): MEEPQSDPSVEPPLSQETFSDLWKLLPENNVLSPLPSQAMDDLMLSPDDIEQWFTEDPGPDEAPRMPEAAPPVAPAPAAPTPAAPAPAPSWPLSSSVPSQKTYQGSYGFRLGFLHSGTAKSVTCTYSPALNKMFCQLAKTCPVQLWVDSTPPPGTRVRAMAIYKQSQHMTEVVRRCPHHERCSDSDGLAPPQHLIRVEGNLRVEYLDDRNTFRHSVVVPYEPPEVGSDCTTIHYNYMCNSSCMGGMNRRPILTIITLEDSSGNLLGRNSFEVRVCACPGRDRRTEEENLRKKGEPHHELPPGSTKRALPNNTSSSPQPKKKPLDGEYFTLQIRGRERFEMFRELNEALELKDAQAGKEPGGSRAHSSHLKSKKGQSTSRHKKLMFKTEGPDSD

Chain of MDM2 (Q00987 whole entry): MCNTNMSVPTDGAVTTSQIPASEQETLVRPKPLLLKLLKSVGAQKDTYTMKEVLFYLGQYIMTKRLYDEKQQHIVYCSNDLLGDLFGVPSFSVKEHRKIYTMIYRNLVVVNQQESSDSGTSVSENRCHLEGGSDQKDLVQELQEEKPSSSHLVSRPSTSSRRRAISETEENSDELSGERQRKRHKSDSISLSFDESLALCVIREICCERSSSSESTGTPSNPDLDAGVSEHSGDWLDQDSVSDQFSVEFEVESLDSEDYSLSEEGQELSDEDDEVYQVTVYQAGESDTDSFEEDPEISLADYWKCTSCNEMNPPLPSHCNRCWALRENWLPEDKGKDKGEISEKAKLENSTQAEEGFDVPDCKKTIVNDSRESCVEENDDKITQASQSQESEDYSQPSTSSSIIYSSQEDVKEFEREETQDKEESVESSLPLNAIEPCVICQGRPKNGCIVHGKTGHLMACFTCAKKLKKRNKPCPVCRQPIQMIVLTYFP

Broadly, the Kd is the constant that tells how readily two partners part at equilibrium. Consider MDM2 (from UniProt Q00987), for which the Kd was 46 nM.
